Article PMC10786891, “Massively parallel profiling of RNA-targeting CRISPR-Cas13d”
Where a chain is given by its changes, count along the chain named. Names and notes keep the numbering of the source.

T1: EsCas13d, nuclease-dead (Eubacterium siraeum, UniProt B0MS50, R295A;H300A;R849A;H854A)
T1 sequence: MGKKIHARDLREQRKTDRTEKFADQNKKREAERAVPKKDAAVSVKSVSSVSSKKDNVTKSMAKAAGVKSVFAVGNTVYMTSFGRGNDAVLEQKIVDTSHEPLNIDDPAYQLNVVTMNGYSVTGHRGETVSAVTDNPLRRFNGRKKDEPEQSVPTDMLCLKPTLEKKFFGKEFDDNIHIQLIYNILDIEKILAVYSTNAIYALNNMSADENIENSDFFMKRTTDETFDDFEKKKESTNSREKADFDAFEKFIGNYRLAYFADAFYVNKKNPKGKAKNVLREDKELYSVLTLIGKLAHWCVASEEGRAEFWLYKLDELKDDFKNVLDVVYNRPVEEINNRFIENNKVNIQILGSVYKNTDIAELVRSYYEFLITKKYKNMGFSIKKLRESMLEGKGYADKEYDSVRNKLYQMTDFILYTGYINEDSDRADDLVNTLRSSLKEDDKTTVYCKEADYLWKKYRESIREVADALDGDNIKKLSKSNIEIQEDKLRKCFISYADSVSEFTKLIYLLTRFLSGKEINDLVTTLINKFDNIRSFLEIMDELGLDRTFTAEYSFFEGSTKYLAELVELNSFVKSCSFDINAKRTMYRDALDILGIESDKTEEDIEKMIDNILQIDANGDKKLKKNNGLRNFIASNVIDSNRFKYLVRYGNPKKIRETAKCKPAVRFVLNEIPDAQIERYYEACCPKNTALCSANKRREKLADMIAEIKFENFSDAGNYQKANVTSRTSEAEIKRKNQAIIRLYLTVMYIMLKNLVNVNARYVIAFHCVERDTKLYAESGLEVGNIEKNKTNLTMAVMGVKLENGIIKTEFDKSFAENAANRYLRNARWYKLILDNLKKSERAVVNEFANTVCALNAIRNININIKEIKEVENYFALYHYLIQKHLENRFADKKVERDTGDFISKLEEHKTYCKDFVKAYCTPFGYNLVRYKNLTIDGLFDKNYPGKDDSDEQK

B1: target 3 C1A,G4U (mixed)
RNA 1: CACCCGUGCAAAAUUGCAGGGGUCUAAAACGACCUGAAUAUUUCAGAUCAAA
RNA 2: GGGAAUGGAUCCACAUCUACGAAUUCGUUUUUGAUCUGAAAUAUUCAUGUAUGCAGAUCGGAAGAGCACACGU
B2: target 3 insC 3' of 4,insU 3' of 4 (mixed)
RNA 1: B1 RNA 1
RNA 2: GGGAAUGGAUCCACAUCUACGAAUUCGUUUUUGAUCUGAAAUAUUCAGCUGUCUGCAGAUCGGAAGAGCACACGU
B3: target 3 insA 3' of 21,insG 3' of 6 (mixed)
RNA 1: B1 RNA 1
RNA 2: GGGAAUGGAUCCACAUCUACGAAUUCGUUUUAUGAUCUGAAAUAUUCGAGGUCUGCAGAUCGGAAGAGCACACGU
B4: target 3 del2,del4 (mixed)
RNA 1: B1 RNA 1
RNA 2: GGGAAUGGAUCCACAUCUACGAAUUCGUUUUUGAUCUGAAAUAUUCAGCUGCAGAUCGGAAGAGCACACGU
B5: target 3 insA 3' of 6,insG 3' of 2 (mixed)
RNA 1: B1 RNA 1
RNA 2: B2 RNA 2 with G48A, C49G, U50G, G51U, U52G
B6: target 3 U2G,U10A (mixed)
RNA 1: B1 RNA 1
RNA 2: B1 RNA 2 with U42A, U48G, U50G, A51C
B7: target 3 C1G,G4U (mixed)
RNA 1: B1 RNA 1
RNA 2: B1 RNA 2 with A51G
B8: target 3 G4C,C6U (mixed)
RNA 1: B1 RNA 1
RNA 2: B1 RNA 2 with C46U, U48C, A51C
B9: target 3 U20C (mixed)
RNA 1: B1 RNA 1
RNA 2: B1 RNA 2 with U32C, U48G, A51C
B10: target 3 C1U,A5C (mixed)
RNA 1: B1 RNA 1
RNA 2: B1 RNA 2 with A47C, U48G, A51U
B11: target 3 U2C,G4A (mixed)
RNA 1: B1 RNA 1
RNA 2: B1 RNA 2 with U48A, U50C, A51C
B12: target 3 G3U,U8G (mixed)
RNA 1: B1 RNA 1
RNA 2: B1 RNA 2 with U44G, U48G, G49U, A51C
B13: target 3 C1U,U8G (mixed)
RNA 1: B1 RNA 1
RNA 2: B1 RNA 2 with U44G, U48G, A51U
B14: target 3 C1G,G3A (mixed)
RNA 1: B1 RNA 1
RNA 2: B1 RNA 2 with U48G, G49A, A51G
B15: target 1 A1C,U3C (mixed)
RNA 1: CACCCGUGCAAAAAUGCAGGGGUCUAAAACUGAGCGGAUAACCUCUCUAUGG
RNA 2: GGGAAUGGAUCCACAUCUACGAAUUCGUACCAUAGAGAGGUUAUCCGCCCCCCGAGAUCGGAAGAGCACACGU
B16: target 1 insC 3' of 20,insU 3' of 9 (mixed)
RNA 1: B15 RNA 1
RNA 2: GGGAAUGGAUCCACAUCUACGAAUUCGUACCACUAGAGAGGUUAUUCCGCUCACCGAGAUCGGAAGAGCACACGU

Biological target: T1, EsCas13d, nuclease-dead
Assay: crRNA (strand 1, pre-loaded); Mg2+; 40 mM Tris-HCl pH 7.5, 150 mM NaCl, 6 mM MgCl2, 1 mM DTT, 0.1% Tween-20, 0.2 mg/ml BSA; 25 C; 10 min per concentration, then washed
Conditions: tags: His6-TwinStrep-SUMO cleaved; N-terminal SNAP kept (SNAP-Surface 488); label: 3' end held by stalled T7 RNA polymerase

| Binder | Kd [nM] |
| --- | --- |
| B1 | 17.4 ± 4.35 |
| B2 | 25 ± 3.25 |
| B3 | 48.5 ± 6.5 |
| B4 | 36.9 ± 5.2 |
| B5 | 4.05 ± 0.6 |
| B6 | 63 ± 16 |
| B7 | 13.4 ± 1.65 |
| B8 | 20.2 ± 1.85 |
| B9 | 62.5 ± 18 |
| B10 | 60.5 ± 9.5 |
| B11 | 16.9 ± 2.45 |
| B12 | 68 ± 10 |
| B13 | 64.5 ± 16.5 |
| B14 | 80 ± 40 |
| B15 | 18 ± 4 |
| B16 | 8 ± 0.9 |
